Positions count from the first letter of the chain named.
What was measured:
[1] = target: T1, prostate specific membrane antigen (PSMA) on LNCaP cells (human, UniProt Q04609 1-750); assay: ELISA on plates coated with LNCaP membrane preparation
T1 construct: whole, on cells; Used for intact LNCaP cells, LNCaP membrane preparations and LNCaP tumour or prostate tissue sections; also called human PSMA; LNCap membrane preparation

[2] = target: T1, prostate specific membrane antigen …; assay: ELISA on LNCaP membrane preparation, purified antibody, reference J415 chimeric antibody
[3] = target: T1, prostate specific membrane antigen …; assay: not described

T1 sequence (Q04609 whole entry): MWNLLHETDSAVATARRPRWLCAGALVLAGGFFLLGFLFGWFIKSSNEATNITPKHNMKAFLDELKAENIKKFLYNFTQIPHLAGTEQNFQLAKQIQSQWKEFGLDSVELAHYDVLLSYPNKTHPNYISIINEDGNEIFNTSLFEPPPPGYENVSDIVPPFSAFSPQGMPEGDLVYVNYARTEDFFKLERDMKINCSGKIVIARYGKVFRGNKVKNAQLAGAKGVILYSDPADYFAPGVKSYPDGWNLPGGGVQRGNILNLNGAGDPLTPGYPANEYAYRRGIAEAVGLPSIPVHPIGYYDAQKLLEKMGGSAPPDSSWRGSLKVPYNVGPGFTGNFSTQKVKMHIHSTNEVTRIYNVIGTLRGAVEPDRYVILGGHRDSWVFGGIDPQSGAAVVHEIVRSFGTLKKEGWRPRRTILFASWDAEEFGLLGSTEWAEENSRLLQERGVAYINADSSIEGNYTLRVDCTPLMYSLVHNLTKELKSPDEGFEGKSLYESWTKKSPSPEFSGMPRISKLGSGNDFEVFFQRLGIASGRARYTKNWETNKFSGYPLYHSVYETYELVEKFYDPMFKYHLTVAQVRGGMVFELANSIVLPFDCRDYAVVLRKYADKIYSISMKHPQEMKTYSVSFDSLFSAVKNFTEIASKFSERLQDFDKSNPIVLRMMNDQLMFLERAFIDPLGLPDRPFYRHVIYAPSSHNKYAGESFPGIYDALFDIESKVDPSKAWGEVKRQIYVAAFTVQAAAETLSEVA

B1: deimmunized J415 antibody, heavy chain version 4 with light chain version 5 (antibody, human IgG1, V domains shown)
VH: EVKLEESGGGLVQPGGSMKISCVASGFTFSNYWMNWVRQSPEKGLEWVAEIRSQSNNFATHYAESVKGRVIISRDDSKSSVYLQMNSLRAEDTAVYYCTRRWNNFWGQGTTVTVSS
VL: NIVMTQFPKSMSASAGERMTLTCKASENVGTYVSWYQQKPTQSPKMLIYGASNRFTGVPDRFSGSGSGTDFILTISSVQAEDLVDYYCGQSYTFPYTFGGGTKLEMK
notes: also called DIVH4/DIVK5; J415DIVH4/J415DIVK5
binding result [1]: binds

B2: J415 chimeric antibody (antibody, V domains shown)
VH: B1 VH with I20L, S87N, A94G, V95I, V112L
VL: B1 VL with A13I, A15V, M19V, T41E, S63T, G68A, A80T
notes: also called the chimeric
binding result [1]: binds

B3: deimmunized J415 antibody, heavy chain version 2 with light chain version 5 (antibody, human IgG1, V domains shown)
VH: B1 VH with S40T, E50L
VL: B1 VL
notes: also called DIVH2/DIVK5; J415DIVH2 with DIVK5
fold less binding than the chimeric antibody [2]: 2 fold

B4: deimmunized J415 antibody, heavy chain version 1 with light chain version 5 (antibody, human IgG1, V domains shown)
VH: B1 VH with V23K, S40T, E50L
VL: B1 VL
notes: also called DIVH1/DIVK5; J415DIVH1 with DIVK5
fold less binding than the chimeric antibody [2]: 2 fold

B5: murine J415 monoclonal antibody (antibody, mouse IgG1, V domains shown)
VH: B1 VH with I20L, S87N, A94G, V95I, V112L
VL: B1 VL with A13I, A15V, M19V, T41E, S63T, G68A, A80T
notes: Mouse IgG1 kappa, hybridoma ATCC HB-12109
binding result [3]: binds

B6: murine J533 monoclonal antibody (antibody, mouse IgG1, V domains shown)
VH: EVQLQQSGPELVKPGASVKMSCKASGYTFTGYVMHWVKQKPGQVLEWIGYINPYNDVTRYNGKFKGKATLTSDKYSSTAYMELSGLTSEDSAVYYCARGENWYYFDSWGRGATLTVSS
VL: DIVLTQSPASLAVSLGQRATISCRASESIDSYDNTFMHWYQQKPGQPPNLLIFRASILESGIPARFSGSGSGTDFTLTIYPVEADDVATYYCHQSIEDPYTFGGGTKLEIK
notes: Mouse IgG1 kappa, hybridoma ATCC HB-12127
binding result [3]: binds

B7: murine E99 monoclonal antibody (antibody, mouse IgG3, V domains shown)
VH: QVQLKESGPGLVASSQSLSITCTVSGFSLTAYGINWVRQPPGKGLEWLGVIWPDGNTDYNSTLKSRLNIFKDNSKNQVFLKMSSFQTDDTARYFCARDSYGNFKRGWFDFWGQGTTLTVSS
VL: NIVMTQSQKFMSTSPGDRVRVTCKASQNVGSDVAWYQAKPGQSPRILIYSTSYRYSGVPDRFTAYGSGTDFTLTITNVQSEDLTEYFCQQYNSYPLTFGAGTKLELK
binding result [3]: binds

From patent US20060062793A1 (published 2006)
